In test [1] the target is CD33 on the surface of human cells (AML cell lines THP-1, KG-1, MV4-11; activated primary human T cells) (human, UniProt P20138 18-364). The test is described as follows: cell-based or functional assay.
Test [2] concerns the target T1, CD33 protein (AcroBiosystems) conjugated to biotin (UniProt P20138 18-259, biotinylated (site not stated)).
T1 construct: Soluble bought reagent used at 2 ug/uL with streptavidin-APC to label cell-surface anti-CD33 CAR; also called biotinylated CD33 protein, CD3-H82E7
The test is described as follows: flow cytometry; cell-surface CAR on edited T cells labelled with biotinylated CD33 protein and streptavidin-APC. The protocol: About one (1) week post electroporation, gene-edited T cells were analyzed by flow cytometry to assess the percentage of the cell population that expressed an anti-CD33 CAR. Labeling of cell-surface anti-CD33 CAR was done with a combination of a CD33 protein (AcroBiosystems) conjugated to biotin and a streptavidin-APC secondary reagent (FIG. 1A, FIG. 1B and FIG. 1C). […] In contrast, certain T cells generated with a TRAC and B2M gene disruption and a CAR construct did result in a high percentage of the population that expressed an anti-CD33 CAR. […] However, not all T cells prepared with a CAR construct had CAR expression. […] Indeed, this outcome was not altered by switching the CAR co-stimulatory domain (e.g., CTX-964 compared to CTX-964b).

T1 sequence (P20138 18-259 limits assumed): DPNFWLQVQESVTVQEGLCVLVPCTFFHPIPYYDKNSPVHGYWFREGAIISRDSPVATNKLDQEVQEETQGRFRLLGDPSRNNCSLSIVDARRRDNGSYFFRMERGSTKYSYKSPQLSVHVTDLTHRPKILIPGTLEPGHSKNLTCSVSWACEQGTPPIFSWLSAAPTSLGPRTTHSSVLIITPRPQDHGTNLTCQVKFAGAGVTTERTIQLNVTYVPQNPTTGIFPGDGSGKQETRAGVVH
Sequence of CD33 on the surface of human cells (AML cell lines THP-1, KG-1, MV4-11; activated primary human T cells) (P20138 18-364): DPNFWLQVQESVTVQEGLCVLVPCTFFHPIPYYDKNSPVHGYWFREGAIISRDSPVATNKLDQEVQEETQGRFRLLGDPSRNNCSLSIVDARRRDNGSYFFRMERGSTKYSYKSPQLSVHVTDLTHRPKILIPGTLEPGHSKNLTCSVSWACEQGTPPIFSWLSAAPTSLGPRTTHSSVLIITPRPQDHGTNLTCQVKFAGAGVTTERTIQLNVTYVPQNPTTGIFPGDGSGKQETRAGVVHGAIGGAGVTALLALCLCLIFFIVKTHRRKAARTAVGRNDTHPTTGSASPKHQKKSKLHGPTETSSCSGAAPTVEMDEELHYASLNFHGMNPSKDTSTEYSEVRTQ

B1: CTX-982b CAR (anti-CD33 CAR, Antibody C scFv VH-VL, 41BB co-stimulatory domain, CD3z) (other)
chain: EVQLVQSGAEVKKPGSSVKVSCKASGYTITDSNIHWVRQAPGQSLEWIGYIYPYNGGTDYNQKFKNRATLTVDNPTNTAYMELSSLRSEDTAFYYCVNGNPWLAYWGQGTLVTVSSGGGGSGGGGSGGGGSDIQLTQSPSTLSASVGDRVTITCRASESLDNYGIRFLTWFQQKPGKAPKLLMYAASNQGSGVPSRFSGSGSGTEFTLTISSLQPDDFATYYCQQTKEVPWSFGQGTKVEVKSAAAFVPVFLPAKPTTTPAPRPPTPAPTIASQPLSLRPEACRPAAGGAVHTRGLDFACDIYIWAPLAGTCGVLLLSLVITLYCNHRNRKRGRKKLLYIFKQPFMRPVQTTQEEDGCSCRFPEEEEGGCELRVKFSRSADAPAYQQGQNQLYNELNLGRREEYDVLDKRRGRDPEMGGKPRRKNPQEGLYNELQKDKMAEAYSEIGMKGERRRGKGHDGLYQGLSTATKDTYDALHMQALPPR
In the case of B1, the “percent cell lysis of CD33 KO MV4-11 cells (CD33-deficient comparison) at 1:1 ratio” value in test [1] was over 60%.

B2: CTX-969 CAR (anti-CD33 CAR, Antibody B scFv VH-VL, CD28 co-stimulatory domain, CD3z) (other)
chain: QVQLVQSGAEVKKPGASVKVSCKASGYTFTNYDINWVRQAPGQGLEWIGWIYPGDGSTKYNEKFKAKATLTADTSTSTAYMELRSLRSDDTAVYYCASGYEDAMDYWGQGTTVTVSSGGGGGSGGGGSGGGGSDIQMTQSPSSLSASVGDRVTINCKASQDINSYLSWFQQKPGKAPKTLIYRANRLVDGVPSRFSGSGSGQDYTLTISSLQPEDFATYYCLQYDEFPLTFGGGTKVEIKSAAAFVPVFLPAKPTTTPAPRPPTPAPTIASQPLSLRPEACRPAAGGAVHTRGLDFACDIYIWAPLAGTCGVLLLSLVITLYCNHRNRSKRSRLLHSDYMNMTPRRPGPTRKHYQPYAPPRDFAAYRSRVKFSRSADAPAYQQGQNQLYNELNLGRREEYDVLDKRRGRDPEMGGKPRRKNPQEGLYNELQKDKMAEAYSEIGMKGERRRGKGHDGLYQGLSTATKDTYDALHMQALPPR
For the molecule B2, the binding result in test [2] is recorded as “binds”.

B3: CTX-982 CAR (anti-CD33 CAR, Antibody C scFv VH-VL, CD28 co-stimulatory domain, CD3z) (other)
chain: EVQLVQSGAEVKKPGSSVKVSCKASGYTITDSNIHWVRQAPGQSLEWIGYIYPYNGGTDYNQKFKNRATLTVDNPTNTAYMELSSLRSEDTAFYYCVNGNPWLAYWGQGTLVTVSSGGGGSGGGGSGGGGSDIQLTQSPSTLSASVGDRVTITCRASESLDNYGIRFLTWFQQKPGKAPKLLMYAASNQGSGVPSRFSGSGSGTEFTLTISSLQPDDFATYYCQQTKEVPWSFGQGTKVEVKSAAAFVPVFLPAKPTTTPAPRPPTPAPTIASQPLSLRPEACRPAAGGAVHTRGLDFACDIYIWAPLAGTCGVLLLSLVITLYCNHRNRSKRSRLLHSDYMNMTPRRPGPTRKHYQPYAPPRDFAAYRSRVKFSRSADAPAYQQGQNQLYNELNLGRREEYDVLDKRRGRDPEMGGKPRRKNPQEGLYNELQKDKMAEAYSEIGMKGERRRGKGHDGLYQGLSTATKDTYDALHMQALPPR
As to B3, the binding result in test [2] is “binds”.

Source of the values: patent US20220226375A1 (CRISPR THERAPEUTICS, published 2022).
